From patent publication US20240417463A1 (ADAGENE PTE, published 2024) come the findings set out here.

Residue numbers refer to the chain shown, from its start.

The labels stand for the following.
B1: TY25033 (antibody, V domains shown)
VH: QVQLVQSGAEVKKPGSSVKVSCKASGFTFTSYAIHWVRQAPGQGLEWIGIINPNFGSTNYAQKFQGRVTITADKSTSTAYMELSSLRSEDTAVYYCARYYYGASFDVWGQGTLVTVSS
VL: DIQLTQSPSSLSASVGDRVTITCKSGQSLLHGDVKTYLYWYQQKPGKAPKLLIYDASNRATGIPSRFSGSGSGTDFTLTISSLQPEDFATYYCQQYASWPPGFTFGQGTKVEIKR
B2: TY25031 (antibody, V domains shown)
VH: EVQLVESGGGLVQPGGSLRLSCAASGYSITSGYHWGWIRQAPGKGLEWIGRIYPSSGSTKYAQKFQGRVTISRDNSKNTLYLQLNSLRAEDTAVYYCARGVRGSYGWFDVWGQGTLVTVSS
VL: DIQLTQSPSSLSASVGDRVTITCSASSRVSYVYWYQQKPGKAPKLLIYAASTLQSGVPSRFSGSGSGTDFTLTISSLQPEDFATYYCQHYVSSPRVYTFGQGTKVEIKR
B3: TY25034 (antibody, V domains shown)
VH: EVQLVESGGGLVQPGGSLRLSCAASGYSITSGHYWNWIRQAPGKGLEWIGIISPSGGGTKYAQKFQGRVTISRDNSKNTLYLQLNSLRAEDTAVYYCARGARGYYALDYWGQGTLVTVSS
VL: EIVLTQSPATLSLSPGERATLSCRASQSVRGRLLAWYQQKPGQAPRLLIYAASSLQSGVPARFSGSGSGTDFTLTISSLEPEDFAVYYCAQYLELPYTFGQGTKVEIKR
B4: TY25036 (antibody, V domains shown)
VH: QVQLVQSGAEVKKPGSSVKVSCKASGYTFTGYAIHWVRQAPGQGLEWIGWISPSSGSTKYAQKFQGRVTITADKSTSTAYMELSSLRSEDTAVYYCARYGYGPVFDYWGQGTLVTVSS
VL: DIQLTQSPSSLSASVGDRVTITCSASSSVTYIYWYQQKPGKAPKLLIYDASNRATGIPSRFSGSGSGTDFTLTISSLQPEDFATYYCQQYTSSPRGFTFGQGTKVEIKR
B5: TY25040 (antibody, V domains shown)
VH: QVQLVQSGAEVKKPGSSVKVSCKASGFTFSDYGIHWVRQAPGQGLEWIGRIYPSGGSTNYAQKFQGRVTITADKSTSTAYMELSSLRSEDTAVYYCARQRGYGRFAYWGQGTLVTVSS
VL: DIQLTQSPSSLSASVGDRVTITCSASSSVGYVYWYQQKPGKAPKLLIYDASSLESGVPSRFSGSGSGTDFTLTISSLQPEDFATYFCQQYTYAPFTFGQGTKVEIKR
B6: TY25030 (antibody, V domains shown)
VH: EVQLVESGGGLVQPGGSLRLSCAASGYSITSGYYWSWIRQAPGKGLEWIGEIYHSGNTYYNPSLKSRVTISRDNSKNTLYLQLNSLRAEDTAVYYCARRVPLGAFDYWGQGTLVTVSS
VL: DIQLTQSPSSLSASVGDRVTITCRASQTVISRYLAWYQQKPGKAPKLLIYDASNLETGVPSRFSGSGSGTDFTLTISSLQPEDFATYYCQQYYAWPLTFGQGTKVEIKR
B7: TY25038 (antibody, V domains shown)
VH: QVQLVQSGAEVKKPGSSVKVSCKASGFTFSRYAIHWVRQAPGQGLEWLGGIIPVFGTANYAQKFQGRVTITADKSTSTAYMELSSLRSEDTAVYYCARQGILGGFAYWGQGTLVTVSS
VL: DIQLTQSPSSLSASVGDRVTITCRASESVDFHGKSFLAWYQQKPGKAPKLLIYAASSLQSGVPSRFSGSGSGTDFTLTISSLQPEDFATYYCQQYLELPFTFGQGTKVEIKR
B8: TY25035 (antibody, V domains shown)
VH: EVQLVESGGGLVQPGGSLRLSCAASGYSISSGYHWDWIRQAPGKGLEWLARIYWDGDKRYSPSLKSRLTISRDNSKNTLYLQLNSLRAEDTAVYYCARFSDGFDPWGQGTLVTVSS
VL: EIVLTQSPATLSLSPGERATLSCRASQSVDFVGISFLHWYQQKPGQAPRLLIYDASNRATGIPARFSGSGSGTDFTLTISSLEPEDFAVYYCVQGLQWPHTFGQGTKVEIKR
B9: TY25029 (antibody, V domains shown)
VH: EVQLVESGGGLVQPGGSLRLSCAASGYTFSNYWIHWVRQAPGKGLEWIGIIYPSSGSTKYAQKFQGRVTISRDNSKNTLYLQLNSLRAEDTAVYYCARDRAPGSSGYYDGFDYWGQGTLVTVSS
VL: DIQLTQSPSSLSASVGDRVTITCRASQSVDFHGISFLHWYQQKPGKAPKLLIYDASSLESGVPSRFSGSGSGTDFTLTISSLQPEDFATYYCHQRSTTPLTFGQGTKVEIKR
B10: TY25039 (antibody, V domains shown)
VH: QVQPAQSGAEVKKPGSSVKVSCKASGYSISSGYYWGWIRQAPGQGLEWIGAISYSGSTYYSPSLKSRVTITADKSTSTAYMELSSLRSEDTAVYYCARHYLFAGSTSYDAFDIWGQGTLVTVSS
VL: DIQLTQSPSSLSASVGDRVTITCRASQSVDFYGFSFLAWYQQKPGKAPKLLIYDASNRATGIPSRFSGSGSGTDFTLTISSLQPEDFATYYCQQSYRTPLTFGQGTKVEIKR
B11: TY25041 (antibody, V domains shown)
VH: QVQLVQSGAEVKKPGSSVKVSCKASGYSISSGHHWNWIRQAPGQGLEWIGAISYSGSTYYSPSLKSRVTITADKSTSTAYMELSSLRSEDTAVYYCARQGYYGGEGYAVDYWGQGTLVTVSS
VL: B10 VL with F34I, A38H, Q93V, S95A, Y96T, R97Q, L100F
B12: TY25037 (antibody, V domains shown)
VH: QVQLVQSGAEVKKPGSSVKVSCKASGYSITSGHYWTWIRQAPGQGLEWIGGIIPVFGTPNYAQKFQGRVTITADKSTSTAYMELSSLRSEDTAVYYCASYGYGGAYFDVWGQGTLVTVSS
VL: B10 VL with Y32H, F34I, A38H, Q93V, S95G, Y96I, R97Q, T98W, L100W
B13: TY21447 (antibody, V domains shown)
VH: EVQLVESGGGLVQPGGSLRLSCAASGFTFSNYAIHWVRQAPGKGLEWVSAISGSGSSTYYADSVKGRFTISRDNSKNTLYLQLNSLRAEDTAVYYCARRGSYGFGAFDYWGQGTLVTVSS
VL: DIQLTQSPSSLSASVGDRVTITCRASQTIGRYLNWYQQKPGKAPKLLIYDASNRATGIPSRFSGSGSGTDFTLTISSLQPEDFATYYCQQRYPWPYTFGQGTKVEIKR
B14: TY21451 (antibody, V domains shown)
VH: EVQLVESGGGLVQPGGSLRLSCAASGFTFSDYWIHWVRQAPGKGLEWVSGISGAGGSTYYADSVKGRFTISRDNSKNTLYLQLNSLRAEDTAVYYCARLGDYWGQGTLVTVSS
VL: DIQLTQSPSSLSASVGDRVTITCRASQGISSVLAWYQQKPGKAPKLLIYAASTLQSGVPSRFSGSGSGTDFTLTISSLQPEDFATYYCQQYYSIPFTFGQGTKVEIKR
B15: TY21449 (antibody, V domains shown)
VH: B13 VH with N31G
VL: B13 VL

One assay deals with T1, hCD47-ECD/Fc protein (Sinobiological) (human, UniProt Q08722 19-139, biotinylated in the Octet assay, sites not stated).
T1 construct: extracellular domain; Bought protein; also called human CD47-Fc antigen; recombinant hCD47-ECD/Fc; not shown: Fc part of the bought fusion protein
T1 sequence (Q08722 19-139 limits assumed): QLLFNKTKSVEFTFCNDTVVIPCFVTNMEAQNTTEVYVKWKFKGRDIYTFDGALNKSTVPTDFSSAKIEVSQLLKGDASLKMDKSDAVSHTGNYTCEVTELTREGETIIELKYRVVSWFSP
The assay can be described thus: ELISA, coated hCD47-ECD/Fc. (In general: An ELISA detects its analyte on a solid surface through an enzyme-linked reagent.)
As usually defined, the EC50 is the midpoint of the concentration-response curve. Lower therefore signals a more potent agent. B1 had an EC50 of 6.11 nM.

Turning to B2, a half-maximal effect (EC50) was put at 0.59 nM.

As for B3, the response was half-maximal at 0.47 nM (EC50).

Molecule B4 yielded an EC50 of 1.71 nM.

On to B5, for which the EC50 is 0.46 nM.

Molecule B6 registered an EC50 of 2.42 nM.

B7 had an EC50 of 0.78 nM. This EC50 is about 3.1-fold lower than that of the molecule before.

The molecule B8 registered an EC50 of 2.55 nM.

In the case of B9, the EC50 amounted to 0.58 nM.

In the case of B10, the EC50 came out at 3.66 nM.

The molecule B11 returned an EC50 of 1.17 nM. Compared with the last molecule, the EC50 is about 3.1-fold lower.

On to B12, for which the EC50 is 0.95 nM.

Molecule B13 returned an EC50 of 0.33 nM.

The next assay has as its target T1, hCD47-ECD/Fc protein (Sinobiological). The assay can be described thus: competition ELISA vs biotin-hSIRPα-ECD/His on coated hCD47-ECD/Fc, experiment 2.
Experimental: (§1) The plates were washed three times again and incubated with HRP-conjugated streptavidin at 37° C. for 1 hour. After washing, the plates were incubated with TMB substrate for 15 minutes at room temperature. The reaction was stopped by the addition of H2SO4 stop solution. Absorbance at 450 nm was measured by a microplate reader. The data was analyzed by GraphPad Prism 7.0.
A word on the IC50: it is the concentration that inhibits the measured activity by half. For B14, the concentration for half-maximal inhibition (IC50) is > 100 nM.

For the molecule B13, the IC50 is 3.12 nM.

B15 yielded an IC50 of 3.18 nM.

The next assay shares this target. The assay is described as follows: ELISA, coated hCD47-ECD/Fc, second independent measurement.
Experimental: After blocking, the plates were washed three times and incubated with test antibodies with serial dilution at 37° C. for 1 hour. Then the plates were washed three times and incubated with HRP-conjugated anti-human Fab secondary antibody (Sigma) at 37° C. for 1 hour. After washing three times, the plates were incubated with TMB substrate for 15 minutes at room temperature. The reaction was stopped by the addition of H2SO4 stop solution. Absorbance at 450 nm was measured by a microplate reader. The data were analyzed by GraphPad Prism 7.0.
Turning to B2, the EC50 was found to be 0.6 nM.

B3 yielded an EC50 of 0.41 nM.

Regarding B5, the EC50 was determined as 0.39 nM. This EC50 and that of the molecule before are within 1.5-fold of each other.

The target is the same in another assay. The assay is described as follows: BLI (Octet RED96), biotin-hCD47-ECD/Fc on SA sensors, 1:1 model.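 Note: test antibodies as analytes, 300 s association then 300 s dissociation in running buffer, with benchmark reference antibodies run as controls.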
Experimental: (§2) The binding affinity between antibodies and human CD47 was measured through Octet® RED96 System (ForteBio). […] After washing, the sensors were dipped into solutions containing test antibodies for 300 seconds to monitor the association phase, and then were dipped into running buffer for 300 seconds to monitor the dissociation phase. The acquired ForteBio data were processed with Data Acquisition software 7.1, and kinetic data were fitted to a 1:1 Langmuir binding model.
For orientation: Kd means the equilibrium constant for the complex coming apart. A word on the koff: it is the rate constant with which the complex falls apart. Read a high koff as a short-lived complex. By kon is commonly meant the second-order rate constant of association. A lower kon goes with slow association. Regarding B1, the Kd is < 0.001 nM, the koff is < 1e-07 s⁻¹ and the kon was 58900 M⁻¹ s⁻¹.

As for B2, the Kd was found to be 0.483 nM, the koff was found to be 8.1e-05 s⁻¹ and the kon was 168000 M⁻¹ s⁻¹.

B3 showed a Kd of 0.826 nM, a koff of 0.000671 s⁻¹ and a kon of 813000 M⁻¹ s⁻¹.

Regarding B4, the Kd was < 0.001 nM, the koff is < 1e-07 s⁻¹ and the kon worked out at 93700 M⁻¹ s⁻¹.

B5 showed a Kd of 0.474 nM, a koff of 0.0002 s⁻¹ and a kon of 422000 M⁻¹ s⁻¹.

In turn, B6 yielded a Kd of 4.62 nM, a koff of 0.00166 s⁻¹ and a kon of 361000 M⁻¹ s⁻¹.

Consider B7, for which the Kd is 4.47 nM, the koff was 0.00111 s⁻¹ and the kon amounted to 249000 M⁻¹ s⁻¹.

Turning to B8, the Kd was < 0.001 nM, the koff is < 1e-07 s⁻¹ and the kon is 171000 M⁻¹ s⁻¹.

B9 displayed a Kd of 1.51 nM, a koff of 0.000631 s⁻¹ and a kon of 417000 M⁻¹ s⁻¹.

The molecule B10 returned a Kd of 0.141 nM, a koff of 1.37e-05 s⁻¹ and a kon of 97300 M⁻¹ s⁻¹.

B12 showed a Kd of 0.611 nM, a koff of 3.42e-05 s⁻¹ and a kon of 56000 M⁻¹ s⁻¹.

For the next assay the target is unchanged. The assay can be described thus: competition ELISA vs biotin-hSIRPα-ECD/His on coated hCD47-ECD/Fc, experiment 1.
Experimental: as §1
Turning to B1, the IC50 was > 100 nM.

Take B2: the IC50 was found to be 4.55 nM. This counts as single-digit nanomolar.

The molecule B3 registered an IC50 of 3.53 nM.

B4: the IC50 was > 100 nM.

The molecule B5 gave an IC50 of 3.3 nM.

The molecule B6 showed an IC50 of 21.7 nM.

Turning to B7, the IC50 was > 100 nM.

The molecule B8 registered an IC50 of 60.6 nM.

For the molecule B9, the IC50 is > 100 nM.

With B10, the IC50 was > 100 nM.

As to B11, the IC50 was > 100 nM.

With B12, the IC50 is > 100 nM.

The target is the same in another assay. The assay can be described thus: BLI (Octet RED96), biotin-hCD47-ECD/Fc on SA sensors, 1:1 model, second independent measurement.
Experimental: as §2
Consider B3, for which binding was characterised by a dissociation constant (Kd) of 0.87 nM, the koff amounted to 0.000704 s⁻¹ and the kon turned out to be 809000 M⁻¹ s⁻¹.
